Measurements as given in patent publication US20200197498A1 (OHIO STATE INNOVATION FOUNDATION, published 2020).

Target: T1, recombinant hPD-L1 ectodomain (human, UniProt Q9NZQ7 19-238)
T1 construct: extracellular domain; Immobilised on a CM5 chip by amine coupling (2345 RU); also called rhPD-L1; rPD-L1
Assay: SPR (Biacore T200), rhPD-L1 immobilised on CM5 chip, 1 µM peptide injected

T1 sequence (Q9NZQ7 19-238): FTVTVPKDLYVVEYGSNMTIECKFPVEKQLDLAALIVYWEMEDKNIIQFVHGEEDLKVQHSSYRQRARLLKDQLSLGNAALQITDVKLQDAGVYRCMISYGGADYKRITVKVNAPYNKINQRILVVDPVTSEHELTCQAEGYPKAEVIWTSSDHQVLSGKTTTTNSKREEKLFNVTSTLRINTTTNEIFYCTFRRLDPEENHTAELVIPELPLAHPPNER

Binder	binding result	SPR response
H-KLAAFPEDRSQPGQDCRFR-NH2 (Free peptide (H2N- at the N-terminus); also called free peptide; 46-64) [PD-1 (45-64)]	binds	–
H-GAISLAPKAQIKESLRAEL-NH2 (Free peptide (H2N- at the N-terminus); also called free peptide) [PD-1 (92-110)]	binds	–
Ac-DFHMSVVRARRNDSGTYL-NH2 (also called acetylated peptide) [AC-PD-1 (73-90)]	binds	–
MVF-HER-2(266-296) (Negative control peptide in SPR) peptide: KLLSLIKGVIVHRLEGVEGPSLLHCPALVTYNTDTFESMPNPEGRYTFGASCV	–	20 RU
H-DFHMSVVRARRNDSGTYL-NH2 (Free peptide (H2N- at the N-terminus); also called free peptide) [PD-1 (73-90)]	binds	–
Ac-GAISLAPKAQIKESLRAEL-NH2 (also called acetylated peptide) [AC-PD-1 (92-110)]	binds	–
Ac-KLAAFPEDRSQPGQDCRFR-NH2 (also called acetylated peptide) [AC-PD-1 (45-64)]	binds	–
